# From patent US20260232827A1 (Zymeworks, published 2026)
# B1: v22277 (palivizumab, anti-RSV negative control, heterodimeric Fc) (antibody, human IgG1, kappa)
# heavy 1: GQVTLRESGPALVKPTQTLTLTCTFSGFSLSTSGMSVGWIRQPPGKALEWLADIWWDDKKDYNPSLKSRLTISKDTSKNQVVLKVTNMDPADTATYYCARSMITNWYFDVWGAGTTVTVSSASTKGPSVFPLAPSSKSTSGGTAALGCLVKDYFPEPVTVSWNSGALTSGVHTFPAVLQSSGLYSLSSVVTVPSSSLGTQTYICNVNHKPSNTKVDKKVEPKSCDKTHTCPPCPAPELLGGPSVFLFPPKPKDTLMISRTPEVTCVVVDVSHEDPEVKFNWYVDGVEVHNAKTKPREEQYNSTYRVVSVLTVLHQDWLNGKEYKCKVSNKALPAPIEKTISKAKGQPREPQVYVYPPSRDELTKNQVSLTCLVKGFYPSDIAVEWESNGQPENNYKTTPPVLDSDGSFALVSKLTVDKSRWQQGNVFSCSVMHEALHNHYTQKSLSLSPG
# heavy 2: not shown
# light: GDIQMTQSPSTLSASVGDRVTITCKSQLSVGYMHWYQQKPGKAPKLLIYDTSKLASGVPSRFSGSGSGTEFTLTISSLQPDDFATYYCFQGSGYPFTFGGGTKLEIKRTVAAPSVFIFPPSDEQLKSGTASVVCLLNNFYPREAKVQWKVDNALQSGNSQESVTEQDSKDSTYSLSSTLTLSKADYEKHKVYACEVTHQGLSSPVTKSFNRGEC
# notes: also called neg control
# B2: v38591 (humanized anti-NaPi2b antibody, wild-type Fc) (antibody, human IgG1, kappa)
# heavy: not shown
# light: DVQMTQSPSSLSASVGDRVTITCRASQDVYSYLNWYQQKPGKAVKLLIYYTSRLQSGVPSRFSGSGSGTDYTLTISSLQPEDFATYYCQQYNIFPWTFGQGTKLEIKRTVAAPSVFIFPPSDEQLKSGTASVVCLLNNFYPREAKVQWKVDNALQSGNSQESVTEQDSKDSTYSLSSTLTLSKADYEKHKVYACEVTHQGLSSPVTKSFNRGEC
# notes: also called v38591 Wild-type; H1L2
# B3: v18993 (lifastuzumab), reference anti-NaPi2b antibody (antibody, human IgG1, kappa)
# heavy 1: GEVQLVESGGGLVQPGGSLRLSCAASGFSFSDFAMSWVRQAPGKGLEWVATIGRVAFHTYYPDSMKGRFTISRDNSKNTLYLQMNSLRAEDTAVYYCARHRGFDVGHFDFWGQGTLVTVSSASTKGPSVFPLAPSSKSTSGGTAALGCLVKDYFPEPVTVSWNSGALTSGVHTFPAVLQSSGLYSLSSVVTVPSSSLGTQTYICNVNHKPSNTKVDKKVEPKSCDKTHTCPPCPAPELLGGPSVFLFPPKPKDTLMISRTPEVTCVVVDVSHEDPEVKFNWYVDGVEVHNAKTKPREEQYNSTYRVVSVLTVLHQDWLNGKEYKCKVSNKALPAPIEKTISKAKGQPREPQVYVYPPSRDELTKNQVSLTCLVKGFYPSDIAVEWESNGQPENNYKTTPPVLDSDGSFALVSKLTVDKSRWQQGNVFSCSVMHEALHNHYTQKSLSLSPG
# heavy 2: not shown
# light: GDIQMTQSPSSLSASVGDRVTITCRSSETLVHSSGNTYLEWYQQKPGKAPKLLIYRVSNRFSGVPSRFSGSGSGTDFTLTISSLQPEDFATYYCFQGSFNPLTFGQGTKVEIKRTVAAPSVFIFPPSDEQLKSGTASVVCLLNNFYPREAKVQWKVDNALQSGNSQESVTEQDSKDSTYSLSSTLTLSKADYEKHKVYACEVTHQGLSSPVTKSFNRGEC
# B4: v18992 (MX35), reference anti-NaPi2b antibody (antibody, human IgG1, kappa)
# heavy 1: GQVQLVQSGAEVVKPGASVKMSCKASGYTFTGYNIHWVKQAPGQGLEWIGAIYPGNGDTSYKQKFRGRATLTADTSTSTVYMELSSLRSEDSAVYYCARGETARATFAYWGQGTLVTVSSASTKGPSVFPLAPSSKSTSGGTAALGCLVKDYFPEPVTVSWNSGALTSGVHTFPAVLQSSGLYSLSSVVTVPSSSLGTQTYICNVNHKPSNTKVDKKVEPKSCDKTHTCPPCPAPELLGGPSVFLFPPKPKDTLMISRTPEVTCVVVDVSHEDPEVKFNWYVDGVEVHNAKTKPREEQYNSTYRVVSVLTVLHQDWLNGKEYKCKVSNKALPAPIEKTISKAKGQPREPQVYVYPPSRDELTKNQVSLTCLVKGFYPSDIAVEWESNGQPENNYKTTPPVLDSDGSFALVSKLTVDKSRWQQGNVFSCSVMHEALHNHYTQKSLSLSPG
# heavy 2: not shown
# light: GDIQMTQSPSSLSASVGDRVTITCSASQDIGNFLNWYQQKPGKTVKVLIYYTSSLYSGVPSRFSGSGSGTDYTLTISSLQPEDFATYYCQQYSKLPLTFGQGTKLELKRTVAAPSVFIFPPSDEQLKSGTASVVCLLNNFYPREAKVQWKVDNALQSGNSQESVTEQDSKDSTYSLSSTLTLSKADYEKHKVYACEVTHQGLSSPVTKSFNRGEC
# Key:
# [1] = target: T1, human sodium-dependent phosphate transporter 2B (NaPi2b) (human, UniProt O95436 1-690); assay: flow cytometry on HEK293-6e cells transiently transfected with human NaPi2b, antibody 18-24 h at 4 C, anti-human IgG Fc AF647
# T1 construct: UniProt ID is given as 095436 [sic]; also called hNaPi2b; Hu NaPi2b
# T1 sequence: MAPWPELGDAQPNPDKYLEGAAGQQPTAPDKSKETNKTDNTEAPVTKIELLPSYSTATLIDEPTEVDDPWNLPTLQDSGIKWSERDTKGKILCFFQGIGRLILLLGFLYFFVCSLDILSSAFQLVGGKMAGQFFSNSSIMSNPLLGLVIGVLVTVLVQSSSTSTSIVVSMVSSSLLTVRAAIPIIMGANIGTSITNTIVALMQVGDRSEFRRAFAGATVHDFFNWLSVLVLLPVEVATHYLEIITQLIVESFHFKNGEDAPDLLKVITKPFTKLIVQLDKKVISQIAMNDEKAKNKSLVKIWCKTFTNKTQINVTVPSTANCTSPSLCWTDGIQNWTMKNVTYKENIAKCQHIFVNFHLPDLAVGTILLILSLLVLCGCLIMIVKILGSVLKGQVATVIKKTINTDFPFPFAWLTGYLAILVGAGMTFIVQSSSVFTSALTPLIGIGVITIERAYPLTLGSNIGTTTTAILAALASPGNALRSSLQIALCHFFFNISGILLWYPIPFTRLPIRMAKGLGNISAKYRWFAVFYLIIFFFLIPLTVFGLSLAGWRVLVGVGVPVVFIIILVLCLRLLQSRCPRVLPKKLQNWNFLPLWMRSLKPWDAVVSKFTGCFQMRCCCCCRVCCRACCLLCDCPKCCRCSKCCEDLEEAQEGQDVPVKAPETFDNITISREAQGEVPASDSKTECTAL
# Experimental: (§1) Briefly, HEK293-6e cells were transfected for ~24 hours to transiently express human NaPi2b, cynomolgus or mouse NaPi2b, at 1 μg of DNA per 1 million cells. Following transfection, 50,000 cells per well were seeded in V-bottom 96-well plates and incubated with 200 nM of primary antibody for 18-24 hours at 4° C. to prevent internalization. […] Following staining and washing, fluorescence was detected by flow cytometry on BD LSRFortessa™ Cell Analyzer (BD Biosciences, Franklin Lake, NJ) with 10,000 minimum events collected per well. The AF647/APC-A GeoMean (fluorescence signal geometric mean, proportional to anti-Human AF647 binding) was calculated for the live singlet cell population for each primary antibody using FlowJo™ v8 software (BD Biosciences, Franklin Lake, NJ). The Bmax and Kd of each primary antibody were calculated using GraphPad Prism Version 9 (GraphPad Software, San Diego, CA)
# [2] = target: T1, human sodium-dependent phosphate …; assay: flow cytometry on HCC-78 cells (endogenous NaPi2b), 24 h at 4 C, anti-human IgG Fc AF647, APC-A GeoMean
# Experimental: (§2) Cells were maintained under standard culture conditions (37° C./5% CO₂) until assay set-up. […] Cells were removed from culture vessels using Cell Dissociation Buffer (Invitrogen, Waltham, MA), seeded at 50,000 cells/well in conical-bottom 96-well plates, and treated with test antibody or antibody-drug conjugate for 24 hours at 4° C. to prevent internalization. […] Following incubation and washing, fluorescence was detected by flow cytometry on a BD LSRFortessa™ Cell Analyzer (BD Biosciences, Franklin Lake, NJ) with 1,000 minimum events collected per well.
# cynomolgus monkey NaPi2b [3] = target: T2, cynomolgus monkey NaPi2b (cynomolgus monkey, UniProt O95436 1-690 (human entry)); assay: flow cytometry on HEK293-6e cells transfected with cynomolgus monkey NaPi2b, 24 h at 4 C, anti-human IgG Fc AF647
# T2 construct: also called Cyno NaPi2b; Cy NaPi2b
# T2 chain: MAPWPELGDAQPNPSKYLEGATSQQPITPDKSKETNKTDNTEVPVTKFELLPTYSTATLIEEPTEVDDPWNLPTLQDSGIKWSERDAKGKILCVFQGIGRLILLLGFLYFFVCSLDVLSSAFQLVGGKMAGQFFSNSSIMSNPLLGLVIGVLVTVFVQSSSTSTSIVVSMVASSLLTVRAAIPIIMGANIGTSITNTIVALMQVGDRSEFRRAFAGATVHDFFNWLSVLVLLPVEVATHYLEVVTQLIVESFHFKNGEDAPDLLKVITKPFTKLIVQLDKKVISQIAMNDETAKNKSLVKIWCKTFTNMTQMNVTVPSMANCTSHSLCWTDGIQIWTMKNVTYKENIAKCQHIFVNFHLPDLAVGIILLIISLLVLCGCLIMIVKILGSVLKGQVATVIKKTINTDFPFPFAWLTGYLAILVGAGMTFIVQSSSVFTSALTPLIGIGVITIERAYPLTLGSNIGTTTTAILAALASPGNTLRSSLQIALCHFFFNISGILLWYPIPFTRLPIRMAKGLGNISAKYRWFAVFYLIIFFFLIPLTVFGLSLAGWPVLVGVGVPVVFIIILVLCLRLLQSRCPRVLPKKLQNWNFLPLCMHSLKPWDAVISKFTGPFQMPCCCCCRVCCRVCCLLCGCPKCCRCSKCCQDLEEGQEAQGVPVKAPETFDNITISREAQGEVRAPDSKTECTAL
# Experimental: Following transfection, cells were seeded at 50,000 cells/well in conical-bottom 96-well plates and treated with test antibody or antibody-drug conjugate for 24 hours at 4° C. to prevent internalization. […] Following incubation and washing, fluorescence was detected by flow cytometry on a BD LSRFortessa™ Cell Analyzer (BD Biosciences, Franklin Lake, NJ) with 1,000 minimum events collected per well.
# [4] = target: T1, human sodium-dependent phosphate …; assay: flow cytometry on H441 cells (endogenous NaPi2b), 24 h at 4 C, anti-human IgG Fc AF647, APC-A GeoMean
# Experimental: as §2
# [5] = target: T1, human sodium-dependent phosphate …; assay: flow cytometry, HEK293-6e cells transfected with human NaPi2b
# Experimental: as §1
# cynomolgus monkey NaPi2b [6] = target: T2, cynomolgus monkey NaPi2b; assay: flow cytometry, HEK293-6e cells transfected with cynomolgus NaPi2b; apparent Kd
# Experimental: as §1
# cynomolgus monkey NaPi2b [7] = target: T2, cynomolgus monkey NaPi2b; assay: flow cytometry, HEK293-6e cells transfected with cynomolgus NaPi2b
# Experimental: as §1
# [8] = target: T1, human sodium-dependent phosphate …; assay: flow cytometry, HEK293-6e cells transfected with human NaPi2b; apparent Kd
# Experimental: as §1
# mouse NaPi2b = target: T3, mouse NaPi2b (mouse, UniProt Q9DBP0 1-697); assay: flow cytometry, HEK293-6e cells transfected with mouse NaPi2b; apparent Kd above the highest concentration tested
# T3 construct: also called Ms NaPi2b; CL #13476
# T3 sequence: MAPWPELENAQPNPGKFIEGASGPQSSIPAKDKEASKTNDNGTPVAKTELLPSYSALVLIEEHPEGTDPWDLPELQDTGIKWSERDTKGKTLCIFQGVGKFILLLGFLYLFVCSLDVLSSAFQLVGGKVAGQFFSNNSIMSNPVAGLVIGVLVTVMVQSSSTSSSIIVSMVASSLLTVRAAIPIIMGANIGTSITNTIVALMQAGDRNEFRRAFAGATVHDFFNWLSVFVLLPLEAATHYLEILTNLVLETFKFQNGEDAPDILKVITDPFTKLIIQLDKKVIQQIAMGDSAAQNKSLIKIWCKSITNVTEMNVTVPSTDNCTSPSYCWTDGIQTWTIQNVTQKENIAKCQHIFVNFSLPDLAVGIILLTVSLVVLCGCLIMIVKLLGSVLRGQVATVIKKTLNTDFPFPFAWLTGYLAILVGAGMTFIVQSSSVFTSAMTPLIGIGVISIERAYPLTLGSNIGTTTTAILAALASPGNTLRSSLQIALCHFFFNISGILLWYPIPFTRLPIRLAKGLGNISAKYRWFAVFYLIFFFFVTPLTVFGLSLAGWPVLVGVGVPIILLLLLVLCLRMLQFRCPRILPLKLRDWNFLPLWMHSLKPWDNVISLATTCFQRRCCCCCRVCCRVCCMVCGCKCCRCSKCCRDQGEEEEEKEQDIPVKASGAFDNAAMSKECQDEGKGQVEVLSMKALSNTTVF
binder,measurement,setting,value
B1,binding result,[1],no binding (tested: 200 nM)
B2,EC50 (read off the curve),[2],~3 nM
same,EC50 (read off the curve),cynomolgus monkey NaPi2b [3],~0.3 nM
same,EC50 (read off the curve),[4],~0.6 nM
B3,Bmax,[5],1610
same,Kd,cynomolgus monkey NaPi2b [6],6.27 nM
same,Bmax,cynomolgus monkey NaPi2b [7],1560
same,EC50 (read off the curve),[1],~1 nM
same,Kd,[8],1.22 nM
same,EC50 (read off the curve),cynomolgus monkey NaPi2b [3],~5 nM
B4,Bmax,[5],1900
same,Kd,cynomolgus monkey NaPi2b [6],31 nM
same,Bmax,cynomolgus monkey NaPi2b [7],2360
same,Kd,mouse NaPi2b,> 200 nM
same,Kd,[8],1.98 nM
